# US20100093619A1
# B1: recombinant AtSerpin1 (Arabidopsis thaliana serpin-1, At1g47710), HIS6-tagged (protein, not shown: small tags and cut ends)
# chain: MDVRESISLQNQVSMNLAKHVITTVSQNSNVIFSPASINVVLSIIAAGSAGATKDQILSFLKFSSTDQLNSFSSEIVSAVLADGSANGGPKLSVANGAWIDKSLSFKPSFKQLLEDSYKAASNQADFQSKAVEVIAEVNSWAEKETNGLITEVLPEGSADSMTKLIFANALYFKGTWNEKFDESLTQEGEFHLLDGNKVTAPFMTSKKKQYVSAYDGFKVLGLPYLQGQDKRQFSMYFYLPDANNGLSDLLDKIVSTPGFLDNHIPRRQVKVREFKIPKFKFSFGFDASNVLKGLGLTSPFSGEEGLTEMVESPEMGKNLCVSNIFHKACIEVNEEGTEAAAASAGVIKLRGLLMEEDEIDFVADHPFLLVVTENITGVVLFIGQVVDPLH
# Assays:
# Experiment in all cases: cell-based or functional assay
# [1] = biological target: cysteine-like cathepsin-L protease activity from Acyrthosiphon pisum (pea aphid) extracts (Acyrthosiphon pisum)
# [2] = biological target: cysteine-like cathepsin-L protease activity from Tetranychus urticae (spider mite) extracts (Tetranychus urticae)
# [3] = biological target: cysteine-like cathepsin-L protease activity from Bemisia tabaci (sweetpotato whitefly) extracts (Bemisia tabaci)
# [4] = biological target: serine-like trypsin protease activity from Spodoptera littoralis (cotton leafworm) gut extracts (Spodoptera littoralis)
# [5] = biological target: serine-like chymotrypsin protease activity from Spodoptera littoralis (cotton leafworm) gut extracts (Spodoptera littoralis)
# [6] = biological target: serine-like chymotrypsin protease activity from Sesamia nonagrioides (Mediterranean corn borer) gut extracts (Sesamia nonagrioides)
# [7] = biological target: cysteine-like cathepsin-B protease activity from Leptinotarsa decemlineata (Colorado potato beetle) gut extracts (Leptinotarsa decemlineata)
# [8] = biological target: cysteine-like cathepsin-L protease activity from Leptinotarsa decemlineata (Colorado potato beetle) gut extracts (Leptinotarsa decemlineata)
# [9] = biological target: cysteine-like cathepsin-L protease activity from Tribolium castaneum (red flour beetle) extracts (Tribolium castaneum)
# [10] = biological target: serine-like trypsin protease activity from Sesamia nonagrioides (Mediterranean corn borer) gut extracts (Sesamia nonagrioides)
# [11] = biological target: cysteine-like cathepsin-B protease activity from Acyrthosiphon pisum (pea aphid) extracts (Acyrthosiphon pisum)
# [12] = biological target: serine-like trypsin protease activity from Ostrinia nubilalis (European corn borer) gut extracts (Ostrinia nubilalis)
binder,measurement,setting,value
B1,% Inhibition of cathepsin L activity at 1.25 µM AtSerpin1,[1],42%
same,% Inhibition of cathepsin L activity at 5 µM AtSerpin1,[1],42%
same,% Inhibition of cathepsin L activity at 10 µM AtSerpin1,[1],39%
same,plateau of % inhibition of cathepsin-L activity (FIG. 14),[1],60%
same,concentration of AtSerpin1 for 50% inhibition of cathepsin-L activity (FIG. 16),[2],2 µM
same,% inhibition of cathepsin-L activity at 20 µM AtSerpin1 (FIG. 15),[3],45%
same,% Inhibition of trypsin activity at 1.25 µM AtSerpin1,[4],52%
same,% Inhibition of trypsin activity at 5 µM AtSerpin1,[4],83%
same,% Inhibition of trypsin activity at 10 µM AtSerpin1,[4],90%
same,"concentration of AtSerpin1 for 50% inhibition of trypsin activity (fluorometric substrate, FIG. 10)",[4],1 µM
same,% Inhibition of chymotrypsin activity at 1.25 µM AtSerpin1,[5],10%
same,% Inhibition of chymotrypsin activity at 5 µM AtSerpin1,[5],31%
same,% Inhibition of chymotrypsin activity at 10 µM AtSerpin1,[5],40%
same,concentration of AtSerpin1 for 50% inhibition of chymotrypsin activity (FIG. 10),[5],10 to 20 µM
same,concentration of AtSerpin1 for ≧50% inhibition of chymotrypsin activity (FIG. 11),[6],> 10 µM
same,% Inhibition of cathepsin B activity at 1.25 µM AtSerpin1,[7],40%
same,% Inhibition of cathepsin B activity at 5 µM AtSerpin1,[7],47%
same,% Inhibition of cathepsin B activity at 10 µM AtSerpin1,[7],46%
same,"concentration of AtSerpin1 for 50% inhibition of cathepsin-B activity (fluorometric substrate, FIG. 12)",[7],> 10 µM
same,% Inhibition of cathepsin L activity at 1.25 µM AtSerpin1,[8],4%
same,% Inhibition of cathepsin L activity at 5 µM AtSerpin1,[8],34%
same,% Inhibition of cathepsin L activity at 10 µM AtSerpin1,[8],48%
same,"concentration of AtSerpin1 for 50% inhibition of cathepsin-L activity (fluorometric substrate, FIG. 12)",[8],> 10 µM
same,IC50 of inhibition of cathepsin-L activity (FIG. 13),[9],4 µM
same,% Inhibition of trypsin activity at 1.25 µM AtSerpin1,[10],90%
same,% Inhibition of trypsin activity at 5 µM AtSerpin1,[10],97%
same,% Inhibition of trypsin activity at 10 µM AtSerpin1,[10],98%
same,concentration of AtSerpin1 for 50% inhibition of trypsin activity (FIG. 11),[10],0.1 µM
same,% Inhibition of cathepsin B activity at 1.25 µM AtSerpin1,[11],50%
same,% Inhibition of cathepsin B activity at 5 µM AtSerpin1,[11],55%
same,% Inhibition of cathepsin B activity at 10 µM AtSerpin1,[11],55%
same,concentration of AtSerpin1 for 50% inhibition of cathepsin-B activity (FIG. 14),[11],1 µM
same,% Inhibition of trypsin activity at 2 µM AtSerpin1,[12],28%
